These results are taken from PMC11267260, “Atom‐Modified gDNA Enhances Cleavage Activity of TtAgo Enabling Ultra‐Sensitive Nucleic Acid Testing”.

This series deals with T1, TtAgo (Thermus thermophilus Argonaute) (Thermus thermophilus, UniProt Q746M7 1-685).
T1 sequence: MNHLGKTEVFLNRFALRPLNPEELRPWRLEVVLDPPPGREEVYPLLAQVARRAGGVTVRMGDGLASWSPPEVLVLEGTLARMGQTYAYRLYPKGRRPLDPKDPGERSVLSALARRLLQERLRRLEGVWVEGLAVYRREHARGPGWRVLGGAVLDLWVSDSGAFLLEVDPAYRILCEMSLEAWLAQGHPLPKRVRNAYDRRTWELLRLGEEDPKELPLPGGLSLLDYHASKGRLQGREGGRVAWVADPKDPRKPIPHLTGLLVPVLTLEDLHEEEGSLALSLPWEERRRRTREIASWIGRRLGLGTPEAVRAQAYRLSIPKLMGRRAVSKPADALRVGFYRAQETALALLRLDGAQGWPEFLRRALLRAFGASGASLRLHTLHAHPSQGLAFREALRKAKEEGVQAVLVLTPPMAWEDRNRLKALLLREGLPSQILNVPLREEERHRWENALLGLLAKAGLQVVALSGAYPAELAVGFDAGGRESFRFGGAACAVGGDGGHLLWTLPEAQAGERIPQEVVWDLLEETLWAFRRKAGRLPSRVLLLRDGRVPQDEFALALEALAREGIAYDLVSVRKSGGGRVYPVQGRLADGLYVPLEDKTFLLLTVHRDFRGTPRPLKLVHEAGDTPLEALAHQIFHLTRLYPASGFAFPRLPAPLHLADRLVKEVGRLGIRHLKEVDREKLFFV
The experiment in a line: EMSA; ternary complex; higher than with C-gDNA; BLI in 1x reaction buffer (composition, pH and temperature not given in the material); EMSA conditions not given. Conditions: protein: recombinant; tags: Ni-column purified; dialyzed with TEV protease (tag not described); guide 1-18 pairs with target 12-29; target overhangs 11 nt 5', 1 nt 3'.

B1: F1-gDNA + target (mixed)
DNA 1: CATGCATCGATCAGCTAC
DNA 2: CTGCAGTCGTCGTAGCTGATCGATGCATGC
modifications: 2'-F on C18 of guide
Regarding B1, the binding result is on record as “binds”.
